This note sets out measurements from patent publication US20140161800A1 (APTEVO RESEARCH AND DEVELOPMENT, published 2014).

Assay [1] addresses T1, prostate-specific membrane antigen (PSMA) (human, UniProt Q04609 1-750).
T1 construct: whole, on cells; also called glutamate carboxypeptidase II; N-acetylated alpha-linked acidic dipeptidase 1
The assay is described as follows: flow cytometry on PSMA+ C4-2 cells (FIG. 2B). The method, then: (§1) A typical experiment would label 300,000 cells per well with a range of 200 nM to 0.1 nM binding molecule in 100 ul of FACS buffer (PBS+2% normal goat serum+2% fetal bovine serum+0.1% sodium azide) on ice, followed by washes and incubation with fluorescently-labeled secondary antibody, goat anti-human IgG (1:400 dilution of Invitrogen #11013=5 ug/ml). After washing secondary antibody off cells, cells were incubated with 7-Aminoactinomycin D (7-AAD) staining solution (BD Pharmingen™ cat#559925) (6 ul of 7AAD to 100 ul of FACS Buffer) for 20 minutes. Signal from bound molecules was detected using a FACSCalibur™ flow cytometer (BD Biosciences) and analyzed by FlowJo flow cytometry analysis software. 7-AAD+ cells were excluded from analysis. Nonlinear regression analysis to determine EC50s was performed in GraphPad Prism® graphing and statistics software.
A general note: Flow cytometry measures light scatter and fluorescence of single cells or particles in a stream.

Assay [2] deals with T1, prostate-specific membrane antigen …. Put plainly: flow cytometry on PSMA+ prostate cancer cells (FIG. 1).
Assay [3] shares this target. The assay is described as follows: flow cytometry on PSMA+ C4-2 cells (FIG. 2A). The method, then: as §1

T1 sequence (Q04609 whole entry): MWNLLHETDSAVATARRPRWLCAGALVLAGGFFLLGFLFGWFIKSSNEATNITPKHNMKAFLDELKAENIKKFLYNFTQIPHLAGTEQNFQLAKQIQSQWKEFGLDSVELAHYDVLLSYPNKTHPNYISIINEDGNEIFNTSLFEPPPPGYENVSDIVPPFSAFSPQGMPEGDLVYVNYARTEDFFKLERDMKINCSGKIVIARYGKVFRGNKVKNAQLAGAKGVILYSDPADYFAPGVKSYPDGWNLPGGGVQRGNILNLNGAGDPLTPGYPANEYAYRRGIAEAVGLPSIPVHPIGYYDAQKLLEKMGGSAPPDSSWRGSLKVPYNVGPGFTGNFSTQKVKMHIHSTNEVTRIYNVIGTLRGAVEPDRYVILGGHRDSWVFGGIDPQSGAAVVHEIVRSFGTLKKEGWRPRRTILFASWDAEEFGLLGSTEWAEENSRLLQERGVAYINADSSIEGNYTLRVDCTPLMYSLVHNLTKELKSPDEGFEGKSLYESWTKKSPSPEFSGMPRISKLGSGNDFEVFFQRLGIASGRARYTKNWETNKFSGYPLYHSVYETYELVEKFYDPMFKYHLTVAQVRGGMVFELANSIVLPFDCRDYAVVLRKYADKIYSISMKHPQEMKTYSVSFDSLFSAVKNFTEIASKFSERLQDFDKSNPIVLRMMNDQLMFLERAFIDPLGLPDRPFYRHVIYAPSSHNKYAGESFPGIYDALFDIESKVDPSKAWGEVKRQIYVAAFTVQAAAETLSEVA

B1: TSC194 Scorpion (huVL-VH#2 107-1A4 scFv-Fc-Cris7 scFv) (bispecific antibody)
chain: DIQMTQSPSAMSASVGDRVTITCRASKSISKYLAWFQQKPGKVPKLRIHSGSTLQSGVPSRFSGSGSGTEFTLTISSLQPEDFATYYCQQHIEYPWTFGQGTKVEIKRGGGGSGGGGSGGGGSQVQLVQSGAEVKKPGASVKVSCKASGYTFTDYYMHWVRQAPGQGLEWMGYFNPYNDYTRYAQKFQGRVTMTRDTSISTAYMELSSLRSDDTAVYYCARSDGYYDAMDYWGQGTTVTVSSSEPKSSDKTHTCPPCPAPEAAGAPSVFLFPPKPKDTLMISRTPEVTCVVVDVSHEDPEVKFNWYVDGVEVHNAKTKPREEQYNSTYRVVSVLTVLHQDWLNGKAYACAVSNKALPAPIEKTISKAKGQPREPQVYTLPPSRDELTKNQVSLTCLVKGFYPSDIAVEWESNGQPENNYKTTPPVLDSDGSFFLYSKLTVDKSRWQQGNVFSCSVMHEALHNHYTQKSLSLSPGQRHNNSSLNTGTQMAGHSPNSQVQLVQSGGGVVQPGRSLRLSCKASGYTFTRSTMHWVRQAPGKGLEWIGYINPSSAYTNYNQKFKDRFTISADKSKSTAFLQMDSLRPEDTGVYFCARPQVHYDYNGFPYWGQGTPVTVSSGGGGSGGGGSGGGGSAQDIQMTQSPSSLSASVGDRVTMTCSASSSVSYMNWYQQKPGKAPKRWIYDSSKLASGVPARFSGSGSGTDYTLTISSLQPEDFATYYCQQWSRNPPTFGGGTKLQITR
notes: also called humanized SCORPION molecule
For the molecule B1, the binding result in assay [1] was “binds”.

B2: TSC199 Scorpion (huVL-VH#1 107-1A4 scFv-Fc-Cris7 scFv) (bispecific antibody)
chain: DIQMTQSPSAMSASVGDRVTITCRASKSISKYLAWFQQKPGKVPKLRIHSGSTLQSGVPSRFSGSGSGTEFTLTISSLQPEDFATYYCQQHIEYPWTFGQGTKVEIKRGGGGSGGGGSGGGGSEVQLVQSGAEVKKPGATVKISCKASGYTFTDYYMHWVQQAPGKGLEWMGYFNPYNDYTRYAEKFQGRVTITADTSTDTAYMELSSLRSEDTAVYYCARSDGYYDAMDYWGQGTTVTVSSSEPKSSDKTHTCPPCPAPEAAGAPSVFLFPPKPKDTLMISRTPEVTCVVVDVSHEDPEVKFNWYVDGVEVHNAKTKPREEQYNSTYRVVSVLTVLHQDWLNGKAYACAVSNKALPAPIEKTISKAKGQPREPQVYTLPPSRDELTKNQVSLTCLVKGFYPSDIAVEWESNGQPENNYKTTPPVLDSDGSFFLYSKLTVDKSRWQQGNVFSCSVMHEALHNHYTQKSLSLSPGQRHNNSSLNTGTQMAGHSPNSQVQLVQSGGGVVQPGRSLRLSCKASGYTFTRSTMHWVRQAPGKGLEWIGYINPSSAYTNYNQKFKDRFTISADKSKSTAFLQMDSLRPEDTGVYFCARPQVHYDYNGFPYWGQGTPVTVSSGGGGSGGGGSGGGGSAQDIQMTQSPSSLSASVGDRVTMTCSASSSVSYMNWYQQKPGKAPKRWIYDSSKLASGVPARFSGSGSGTDYTLTISSLQPEDFATYYCQQWSRNPPTFGGGTKLQITR
notes: as for B1
Turning to B2, the binding result in assay [1] was “binds”.

B3: TSC092 chimeric SMIP (murine 107-1A4 VH-VL scFv-human Fc) (Fc fusion)
chain: EIQLQQSGPELVKPGASVKMSCKASGYTFTDYYMHWVKQNNGESLEWIGYFNPYNDYTRYNQNFNGKATLTVDKSSSTAYMQLNSLTSEDSAFYYCARSDGYYDAMDYWGQGTSVTVSSGGGGSGGGGSSGGGGSDVQITQSPSYLAASPGETITINCRASKSISKYLAWYQEKPGKANKLLIHSGSTLQSGIPSRFSGSGSGTDFTLTISSLEPEDFAMYYCQQHIEYPWTFGGGTKLEIKRASSEPKSSDKTHTCPPCPAPEAAGAPSVFLFPPKPKDTLMISRTPEVTCVVVDVSHEDPEVKFNWYVDGVEVHNAKTKPREEQYNSTYRVVSVLTVLHQDWLNGKAYACAVSNKALPAPIEKTISKAKGQPREPQVYTLPPSRDELTKNQVSLTCLVKGFYPSDIAVEWESNGQPENNYKTTPPVLDSDGSFFLYSKLTVDKSRWQQGNVFSCSVMHEALHNHYTQKSLSLSPGK
notes: scFv-hinge-Fc
B3: the binding result in assay [2] is “binds”.

B4: TSC188 humanized SMIP (107-1A4 VL-VH#1 scFv-Fc) (Fc fusion)
chain: DIQMTQSPSAMSASVGDRVTITCRASKSISKYLAWFQQKPGKVPKLRIHSGSTLQSGVPSRFSGSGSGTEFTLTISSLQPEDFATYYCQQHIEYPWTFGQGTKVEIKRGGGGSGGGGSGGGGSEVQLVQSGAEVKKPGATVKISCKASGYTFTDYYMHWVQQAPGKGLEWMGYFNPYNDYTRYAEKFQGRVTITADTSTDTAYMELSSLRSEDTAVYYCARSDGYYDAMDYWGQGTTVTVSSSEPKSSDKTHTCPPCPAPEAAGAPSVFLFPPKPKDTLMISRTPEVTCVVVDVSHEDPEVKFNWYVDGVEVHNAKTKPREEQYNSTYRVVSVLTVLHQDWLNGKAYACAVSNKALPAPIEKTISKAKGQPREPQVYTLPPSRDELTKNQVSLTCLVKGFYPSDIAVEWESNGQPENNYKTTPPVLDSDGSFFLYSKLTVDKSRWQQGNVFSCSVMHEALHNHYTQKSLSLSPGK
notes: scFv-hinge-Fc
Turning to B4, the binding result in assay [3] is “binds”.

B5: TSC189 humanized SMIP (107-1A4 VL-VH#2 scFv-Fc) (Fc fusion)
chain: DIQMTQSPSAMSASVGDRVTITCRASKSISKYLAWFQQKPGKVPKLRIHSGSTLQSGVPSRFSGSGSGTEFTLTISSLQPEDFATYYCQQHIEYPWTFGQGTKVEIKRGGGGSGGGGSGGGGSQVQLVQSGAEVKKPGASVKVSCKASGYTFTDYYMHWVRQAPGQGLEWMGYFNPYNDYTRYAQKFQGRVTMTRDTSISTAYMELSSLRSDDTAVYYCARSDGYYDAMDYWGQGTTVTVSSSEPKSSDKTHTCPPCPAPEAAGAPSVFLFPPKPKDTLMISRTPEVTCVVVDVSHEDPEVKFNWYVDGVEVHNAKTKPREEQYNSTYRVVSVLTVLHQDWLNGKAYACAVSNKALPAPIEKTISKAKGQPREPQVYTLPPSRDELTKNQVSLTCLVKGFYPSDIAVEWESNGQPENNYKTTPPVLDSDGSFFLYSKLTVDKSRWQQGNVFSCSVMHEALHNHYTQKSLSLSPGK
notes: scFv-hinge-Fc
On to B5, for which the binding result in assay [3] is given as “binds”.

B6: TSC085 chimeric SMIP (murine 107-1A4 VL-VH scFv-human Fc) (Fc fusion)
chain: DVQITQSPSYLAASPGETITINCRASKSISKYLAWYQEKPGKANKLLIHSGSTLQSGIPSRFSGSGSGTDFTLTISSLEPEDFAMYYCQQHIEYPWTFGGGTKLEIKRAGGGGSGGGGSSGGGGSEIQLQQSGPELVKPGASVKMSCKASGYTFTDYYMHWVKQNNGESLEWIGYFNPYNDYTRYNQNFNGKATLTVDKSSSTAYMQLNSLTSEDSAFYYCARSDGYYDAMDYWGQGTSVTVSSSEPKSSDKTHTCPPCPAPEAAGAPSVFLFPPKPKDTLMISRTPEVTCVVVDVSHEDPEVKFNWYVDGVEVHNAKTKPREEQYNSTYRVVSVLTVLHQDWLNGKAYACAVSNKALPAPIEKTISKAKGQPREPQVYTLPPSRDELTKNQVSLTCLVKGFYPSDIAVEWESNGQPENNYKTTPPVLDSDGSFFLYSKLTVDKSRWQQGNVFSCSVMHEALHNHYTQKSLSLSPGK
notes: scFv-hinge-Fc
Turning to B6, the binding result in assay [2] is listed as “binds”.
